{
  "source": "patent US20250043302A1",
  "about": "“MUTATED HYDROXYPHENYLPYRUVATE DIOXYGENASE POLYPEPTIDE, AND CODING GENE AND USE THEREOF” (BEIJING DABEINONG BIOTECHNOLOGY CO., LTD., priority 2021, published 2025)",
  "type_in_all_cases": "in vivo",
  "key": {"soybean T1 plants [1]": {"system": "soybean T1 plants", "test": "Topramezone tolerance of transgenic soybean T1 plants", "conditions": "different concentrations", "description": "T1 transformants were initially selected from the untransformed seeds using a glufosinate selection scheme. […] The degree of damage caused by the herbicide was measured for each plant according to the proportion of bleached leaf area (the proportion of bleached leaf area=bleached leaf area/total leaf area×100%) 7 days after spraying (7 DAT): the case where there is basically no bleached phenotype is defined as grade 0, the case where the proportion of bleached leaf area is less than 50% is defined as grade 1, the case where the proportion of bleached leaf area is more than 50% is defined as grade 2, and the case where the proportion of bleached leaf area is 100% grade is defined as grade 3.\nThe soybean T1 plants into which the SbHPPD-02 nucleotide sequence was introduced, soybean T1 plants into which the SbHPPDm-F372A-02 nucleotide sequence was introduced, soybean T1 plants into which the SbHPPDm-F383W-02 nucleotide sequence was introduced, soybean T1 plants into which the SbHPPDm-F372A-F383W-02 nucleotide sequence was introduced, soybean T1 plants into which the control vector DBN11726N nucleotide sequence was introduced, and wild-type soybean plants (V3-V4 at seedling stage) were sprayed with topramezone at three different concentrations (i.e., 25 g ai/ha (one-fold field concentration, 1×). […] According to the method in point 6 of Example 1, after 7 days of spraying (7 DAT), the damage degree of each plant by the herbicide was statistically analyzed, and the scoring and resistance evaluation were carried out accordingly. […]"}, "[2]": {"system": "Arabidopsis thaliana T1 plants", "test": "Topramezone tolerance of transgenic Arabidopsis thaliana T1 plants (spray, bleached leaf area grade, damage score)", "conditions": "7 DAT, Table 4; for Classification and statistics of the grade of pesticide damage: Grade 0 / Classification and statistics of the grade of pesticide damage: Grade 1 / Classification and statistics of the grade of pesticide damage: Grade 2 / Classification and statistics of the grade of pesticide damage: Grade 3: number of plants; for Scores: pesticide damage score 0-100", "method_in_brief": "(§1)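 Damage graded 0–3 from the proportion of bleached leaf area 7 days after spraying. Plants were glufosinate-selected T1 lines, 18 days after sowing, plus vector and wild-type controls. Rates: mesotrione 52.5–420, isoxaflutole 35–280, topramezone 25–200 g ai/ha, with water (0×).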"}, "soybean T1 plants [3]": {"system": "soybean T1 plants", "test": "Mesotrione tolerance of transgenic soybean T1 plants", "conditions": "different concentrations"}, "[4]": {"system": "Arabidopsis thaliana T1 plants", "test": "Mesotrione tolerance of transgenic Arabidopsis thaliana T1 plants (spray, bleached leaf area grade, damage score)", "set-up": "Scores: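 damage score 0-100 computed as Σ(N×S)/(T×M)×100 over grades 0-3 with higher meaning more damage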", "conditions": "Arabidopsis thaliana T1 plants; for Grade 0 (classification and statistics of the grade of pesticide damage; number of plants) / Grade 1 (classification and statistics of the grade of pesticide damage; number of plants) / Grade 2 (classification and statistics of the grade of pesticide damage; number of plants) / Grade 3 (classification and statistics of the grade of pesticide damage; number of plants): 16 plants", "method_in_brief": "as §1"}, "[5]": {"system": "Arabidopsis thaliana T1 plants", "test": "Isoxaflutole tolerance of transgenic Arabidopsis thaliana T1 plants (spray, bleached leaf area grade, damage score)", "set-up": "Scores (pesticide damage): scale not given here", "conditions": "spray, Arabidopsis thaliana T1 plants; for Classification and statistics of the grade of pesticide damage: Grade 0 (number of plants) / Classification and statistics of the grade of pesticide damage: Grade 1 (number of plants) / Classification and statistics of the grade of pesticide damage: Grade 2 (number of plants) / Classification and statistics of the grade of pesticide damage: Grade 3 (number of plants): 16 plants", "method_in_brief": "as §1"}, "soybean T1 plants [6]": {"system": "soybean T1 plants", "test": "Isoxaflutole tolerance of transgenic soybean T1 plants", "conditions": "different concentrations"}, "[7]": {"conditions": "isoxaflutole 35 g ai/ha (0.5x field concentration)"}, "[8]": {"conditions": "isoxaflutole 70 g ai/ha (1x field concentration)"}},
  "data": [
    {"molecule": "SbHPPDm-F372A-F383W-02: nucleotide sequence encoding Sorghum bicolor HPPD with F372A+F383W; vector DBN11761 (nucleic acid, SbHPPDm-F372A-F383W-02 Nucleotide Sequence, vector DBN11761) DNA: ATGCCGCCCACTCCAACAACTGCTGCTGCGACGGGAGCAGCTGTCGCCGCTGCTTCTGCTGAGCAGGCTGCCTTCAGGCTCGTCGGGCACAGAAATTTTGTTCGTGTAAATCCAAGGAGTGATAGGTTCCACACCTTGGCTTTTCACCACGTGGAGTTGTGGTGTGCTGATGCAGCCTCGGCAGCGGGGCGCTTCTCGTTTGGTCTCGGTGCTCCGCTCGCCGCAAGATCTGATCTTAGCACTGGAAACACAGCGCATGCCTCCCTGCTCCTGCGCTCTGGCGCGCTGGCGTTCCTCTTCACGGCGCCATATGCTCACGGCGCCGACGCCGCCACCGCGTCATTGCCGTCTTTTAGTGCAGCCGAAGCAAGAAGATTTGCAGCAGACCACGGCCTCGCCGTAAGGGCCGTGGCCTTACGTGTCGCCGATGCCGAAGATGCTTTCCGCGCCTCTGTAGCAGCTGGAGCAAGGCCAGCATTTGAACCTGTTGAATTGGGGTTAGGATTCCGTCTTGCAGAAGTTGAGCTTTATGGCGACGTTGTTTTGAGATACGTTTCATATCCTGATGACGCTGACGCTAGCTTCTTGCCTGGTTTTGTGGGGGTGACATCACCTGGGGCAGCAGATTATGGTCTCAGGCGGTTTGATCATATTGTTGGAAACGTTCCTGAACTCGCGCCGGCGGCAGCCTACTTCGCCGGTTTCACTGGGTTTCATGAATTTGCTGAATTCACAGCCGAGGATGTCGGCACCACCGAGAGTGGACTGAACTCCATGGTGCTGGCCAACAATGCAGAGAATGTCCTTCTTCCCTTGAATGAACCAGTTCATGGAACAAAAAGGCGTTCCCAAATACAAACATACCTCGACCATCATGGTGGACCAGGCGTTCAGCATATGGCTCTCGCTAGTGACGATGTTCTACGAACCCTGCGAGAGATGCAGGCGCGGTCTGCAATGGGAGGATTTGAGTTCATGGCACCTCCTGCCCCTGAATATTATGATGGTGTTCGGAGAAGGGCAGGTGATGTGCTAACTGAAGCTCAAATCAAGGAGTGCCAGGAGCTTGGCGTGCTGGTCGATCGGGATGATCAAGGTGTGCTTCTGCAGATTGCCACTAAACCAGTGGGTGACCGCCCCACGCTGTGGCTAGAGATCATCCAGAGAATAGGGTGCATGGAGAAGGACGAAAAAGGACAAGAGTACCAGAAGGGAGGTTGTGGCGGCTTTGGAAAAGGGAACTTCTCCCAATTATTCAAGTCAATTGAAGACTATGAAAAGAGTTTGGAGGCTAAGCAAGCTGCAGCCGCCCAGGGCAGCTGA", "values": [
      {"measurement": "tolerance to HPPD-inhibitor herbicides (in words): topramezone", "setting": "soybean T1 plants [1]", "result": "different degrees of tolerance"},
      {"measurement": "Classification and statistics of the grade of pesticide damage: Grade 0", "setting": "[2]; topramezone 25 g ai/ha (1×)", "result": 16},
      {"measurement": "Classification and statistics of the grade of pesticide damage: Grade 1", "setting": "[2]; topramezone 25 g ai/ha (1×)", "result": 0},
      {"measurement": "Classification and statistics of the grade of pesticide damage: Grade 2", "setting": "[2]; topramezone 25 g ai/ha (1×)", "result": 0},
      {"measurement": "Classification and statistics of the grade of pesticide damage: Grade 3", "setting": "[2]; topramezone 25 g ai/ha (1×)", "result": 0},
      {"measurement": "Classification and statistics of the grade of pesticide damage: Grade 0", "setting": "[2]; topramezone 100 g ai/ha (4×)", "result": 9},
      {"measurement": "Classification and statistics of the grade of pesticide damage: Grade 1", "setting": "[2]; topramezone 100 g ai/ha (4×)", "result": 7},
      {"measurement": "Classification and statistics of the grade of pesticide damage: Grade 2", "setting": "[2]; topramezone 100 g ai/ha (4×)", "result": 0},
      {"measurement": "Classification and statistics of the grade of pesticide damage: Grade 3", "setting": "[2]; topramezone 100 g ai/ha (4×)", "result": 0},
      {"measurement": "Scores", "setting": "[2]; topramezone 25 g ai/ha (1×)", "result": 0},
      {"measurement": "Scores", "setting": "[2]; topramezone 100 g ai/ha (4×)", "result": 15},
      {"measurement": "Resistance evaluation", "setting": "[2]; topramezone 25 g ai/ha (1×)", "result": "highly"},
      {"measurement": "Resistance evaluation", "setting": "[2]; topramezone 100 g ai/ha (4×)", "result": "highly"},
      {"measurement": "tolerance to HPPD-inhibitor herbicides (in words): mesotrione", "setting": "soybean T1 plants [3]", "result": "different degrees of tolerance"},
      {"measurement": "Resistance evaluation", "setting": "[4]; mesotrione 52.5 g ai/ha", "result": "Highly resistant"},
      {"measurement": "Scores", "setting": "[4]; mesotrione 52.5 g ai/ha", "result": 13},
      {"measurement": "Grade 0 (classification and statistics of the grade of pesticide damage; number of plants)", "setting": "[4]; mesotrione 52.5 g ai/ha", "result": 10},
      {"measurement": "Grade 1 (classification and statistics of the grade of pesticide damage; number of plants)", "setting": "[4]; mesotrione 52.5 g ai/ha", "result": 6},
      {"measurement": "Grade 2 (classification and statistics of the grade of pesticide damage; number of plants)", "setting": "[4]; mesotrione 52.5 g ai/ha", "result": 0},
      {"measurement": "Grade 3 (classification and statistics of the grade of pesticide damage; number of plants)", "setting": "[4]; mesotrione 52.5 g ai/ha", "result": 0},
      {"measurement": "Resistance evaluation", "setting": "[4]; mesotrione 105 g ai/ha", "result": "Poorly resistant"},
      {"measurement": "Scores", "setting": "[4]; mesotrione 105 g ai/ha", "result": 38},
      {"measurement": "Grade 0 (classification and statistics of the grade of pesticide damage; number of plants)", "setting": "[4]; mesotrione 105 g ai/ha", "result": 0},
      {"measurement": "Grade 1 (classification and statistics of the grade of pesticide damage; number of plants)", "setting": "[4]; mesotrione 105 g ai/ha", "result": 14},
      {"measurement": "Grade 2 (classification and statistics of the grade of pesticide damage; number of plants)", "setting": "[4]; mesotrione 105 g ai/ha", "result": 2},
      {"measurement": "Grade 3 (classification and statistics of the grade of pesticide damage; number of plants)", "setting": "[4]; mesotrione 105 g ai/ha", "result": 0},
      {"measurement": "Resistance evaluation", "setting": "[5]; [7]", "result": "Highly"},
      {"measurement": "Scores (pesticide damage)", "setting": "[5]; [7]", "result": 8},
      {"measurement": "Classification and statistics of the grade of pesticide damage: Grade 0 (number of plants)", "setting": "[5]; [7]", "result": 12},
      {"measurement": "Classification and statistics of the grade of pesticide damage: Grade 1 (number of plants)", "setting": "[5]; [7]", "result": 4},
      {"measurement": "Classification and statistics of the grade of pesticide damage: Grade 2 (number of plants)", "setting": "[5]; [7]", "result": 0},
      {"measurement": "Classification and statistics of the grade of pesticide damage: Grade 3 (number of plants)", "setting": "[5]; [7]", "result": 0},
      {"measurement": "Resistance evaluation", "setting": "[5]; [8]", "result": "Highly"},
      {"measurement": "Scores (pesticide damage)", "setting": "[5]; [8]", "result": 13},
      {"measurement": "Classification and statistics of the grade of pesticide damage: Grade 0 (number of plants)", "setting": "[5]; [8]", "result": 10},
      {"measurement": "Classification and statistics of the grade of pesticide damage: Grade 1 (number of plants)", "setting": "[5]; [8]", "result": 6},
      {"measurement": "Classification and statistics of the grade of pesticide damage: Grade 2 (number of plants)", "setting": "[5]; [8]", "result": 0},
      {"measurement": "Classification and statistics of the grade of pesticide damage: Grade 3 (number of plants)", "setting": "[5]; [8]", "result": 0},
      {"measurement": "tolerance to HPPD-inhibitor herbicides (in words): isoxaflutole", "setting": "soybean T1 plants [6]", "result": "different degrees of tolerance"}
    ]}
  ]
}
